Assay results from patent US20190321478A1 (IMMATICS BIOTECHNOLOGIES, published 2019).

Molecular target: HLA-A*02-presented MAGEA1-003 (on target cells) (human)
Test: cell-based or functional assay

Row | Binder | EC50 of IFNγ release, T2 cells loaded with titrated MAGEA1-003 peptide [nM]
1 | TCR R59P2E7 (TCR, V domains shown) V domain 1: KQEVTQIPAALSVPEGENLVLNCSFTDSAIYNLQWFRQDPGKGLTSLLLIQSSQREQTSGRLNASLDKSSGRSTLYIAASQPGDSATYLCAVNSDYKLSFGAGTTVTVRA V domain 2: AAGVIQSPRHLIKEKRETATLKCYPIPRHDTVYWYQQGPGQDPQFLISFYEKMQSDKGSIPDRFSAQQFSDYHSELNMSSLELGDSALYFCASSLGLGTGDYGYTFGSGTRLTVVE | 386
2 | TCR R37P1H1 (TCR, V domains shown) V domain 1: AQTVTQSQPEMSVQEAETVTLSCTYDTSESNYYLFWYKQPPSRQMILVIRQEAYKQQNATENRFSVNFQKAAKSFSLKISDSQLGDTAMYFCAFGYSGGGADGLTFGKGTHLIIQP V domain 2: DAGVTQSPTHLIKTRGQQVTLRCSPKSGHDTVSWYQQALGQGPQFIFQYYEEEERQRGNFPDRFSGHQFPNYSSELNVNALLLGDSALYLCASSNEGQGWEAEAFFGQGTRLTVVE | 26
3 | TCR R42P3A9 (TCR, V domains shown) V domain 1: GIQVEQSPPDLILQEGANSTLRCNFSDSVNNLQWFHQNPWGQLINLFYIPSGTKQNGRLSATTVATERYSLLYISSSQTTDSGVYFCAVHNFNKFYFGSGTKLNVKP V domain 2: AAGVIQSPRHLIKEKRETATLKCYPIPRHDTVYWYQQGPGQDPQFLISFYEKMQSDKGSIPDRFSAQQFSDYHSELNMSSLELGDSALYFCASSLLGQGYNEQFFGPGTRLTVLE | 823

Other lines, results leading:

Row | EC50 of IFNγ release, T2 cells loaded with titrated MAGEA1-003 peptide [nM] | Binder
4 | 100 | TCR R26P2A6 (TCR, V domains shown) V domain 1: QKEVEQDPGPLSVPEGAIVSLNCTYSNSAFQYFMWYRQYSRKGPELLMYTYSSGNKEDGRFTAQVDKSSKYISLFIRDSQPSDSATYLCAMSDVSGGYNKLIFGAGTRLAVHP V domain 2: EAQVTQNPRYLITVTGKKLTVTCSQNMNHEYMSWYRQDPGLGLRQIYYSMNVEVTDKGDVPEGYKVSRKEKRNFPLILESPSPNQTSLYFCASTTPDGTDEQFFGPGTRLTVLE
5 | 6 | TCR R26P1A9 (TCR, V domains shown) V domain 1: SQQGEEDPQALSIQEGENATMNCSYKTSINNLQWYRQNSGRGLVHLILIRSNEREKHSGRLRVTLDTSKKSSSLLITASRAADTASYFCLIGASGSRLTFGEGTQLTVNP V domain 2: DAGVIQSPRHEVTEMGQEVTLRCKPISGHDYLFWYRQTMMRGLELLIYFNNNVPIDDSGMPEDRFSAKMPNASFSTLKIQPSEPRDSAVYFCASSYFGWNEKLFFGSGTQLSVLE
